Experimental findings from publication PMC10875832 are described below.

The target of test [1] is FAdV-4 fiber1 knob (fowl adenovirus 4 (FAdV-4)). In words: crystal structure; crystal in 20% (w/v) PEG 4000 and 0.15 M potassium sulfate; one chain in the asymmetric unit, trimer by crystal symmetry.
The target in test [2] is EDSV fibre knob (egg drop syndrome virus (EDSV)). In words: SPR; Biacore X100, CM5 sensor chip; fibre knobs immobilised, soluble CAR domains in solution (said for D12); 1:1 binding model.
The target of test [3] is FAdV-4 fiber1 knob (fowl adenovirus 4 (FAdV-4)). Described as above.
Test [4] addresses CELO fiber1 knob (chicken embryo lethal orphan (CELO) virus). The test is described as above.

FAdV-4 fiber1 knob (domain or fragment) gave a stoichiometry N in test [1] of 3.
In the case of “soluble CAR D1 domain (domain or fragment)”, the dissociation constant (Kd) in test [2] came to 2.76 µM; in test [3], 7.42 µM.
On to “soluble CAR D2 domain (domain or fragment)”, for which the figures for the Kd in test [2], in test [4] and in test [3] were 4.77 µM, 11200 µM and 6.29 µM, respectively. In addition, in test [4], the fold weaker affinity than the D1 domain for the same knob came out at 1000 fold.
With soluble CAR D12 (domain or fragment), the Kd in test [2] amounted to 2.67 µM; in test [3], 0.868 µM.
